# Source: paper PMC11838285 (bioRxiv, 2025)
# B1: RECQL5_(1–620) D157A (domain or fragment)
# chain: MSSHHTTFPFDPERRVRSTLKKVFGFDSFKTPLQESATMAVVKGNKDVFVCMPTGAGKSLCYQLPALLAKGITIVVSPLIALIQDQVDHLLTLKVRVSSLNSKLSAQERKELLADLEREKPQTKILYITPEMAASSSFQPTLNSLVSRHLLSYLVVAEAHCVSQWGHDFRPDYLRLGALRSRLGHAPCVALTATATPQVQEDVFAALHLKKPVAIFKTPCFRANLFYDVQFKELISDPYGNLKDFCLKALGQEADKGLSGCGIVYCRTREACEQLAIELSCRGVNAKAYHAGLKASERTLVQNDWMEEKVPVIVATISFGMGVDKANVRFVAHWNIAKSMAGYYQESGRAGRDGKPSWCRLYYSRNDRDQVSFLIRKEVAKLQEKRGNKASDKATIMAFDALVTFCEELGCRHAAIAKYFGDALPACAKGCDHCQNPTAVRRRLEALERSSSWSKTCIGPSQGNGFDPELYEGGRKGYGDFSRYDEGSGGSGDEGRDEAHKREWNLFYQKQMQLRKGKDPKIEEFVPPDENCPLKEASSRRIPRLTVKAREHCLRLLEEALSSNRQSTRTADEADLRAKAVELEHETFRNAKVANLYKASVLKKVADIHRASKDGQPYDM
# Biological target: RPB1 subunit of human RNA Polymerase II (human, UniProt P24928 1-1970)
# Test: cryo-EM structure
binder,measurement,value
B1,binding result,binds
